In publication doi:10.1101/2021.05.04.442675:

Target: FLAG-tagged MIWI piRISC made in BmN4 cells (mouse) (UniProt Q9JMB7)
Sequence (Q9JMB7 whole entry): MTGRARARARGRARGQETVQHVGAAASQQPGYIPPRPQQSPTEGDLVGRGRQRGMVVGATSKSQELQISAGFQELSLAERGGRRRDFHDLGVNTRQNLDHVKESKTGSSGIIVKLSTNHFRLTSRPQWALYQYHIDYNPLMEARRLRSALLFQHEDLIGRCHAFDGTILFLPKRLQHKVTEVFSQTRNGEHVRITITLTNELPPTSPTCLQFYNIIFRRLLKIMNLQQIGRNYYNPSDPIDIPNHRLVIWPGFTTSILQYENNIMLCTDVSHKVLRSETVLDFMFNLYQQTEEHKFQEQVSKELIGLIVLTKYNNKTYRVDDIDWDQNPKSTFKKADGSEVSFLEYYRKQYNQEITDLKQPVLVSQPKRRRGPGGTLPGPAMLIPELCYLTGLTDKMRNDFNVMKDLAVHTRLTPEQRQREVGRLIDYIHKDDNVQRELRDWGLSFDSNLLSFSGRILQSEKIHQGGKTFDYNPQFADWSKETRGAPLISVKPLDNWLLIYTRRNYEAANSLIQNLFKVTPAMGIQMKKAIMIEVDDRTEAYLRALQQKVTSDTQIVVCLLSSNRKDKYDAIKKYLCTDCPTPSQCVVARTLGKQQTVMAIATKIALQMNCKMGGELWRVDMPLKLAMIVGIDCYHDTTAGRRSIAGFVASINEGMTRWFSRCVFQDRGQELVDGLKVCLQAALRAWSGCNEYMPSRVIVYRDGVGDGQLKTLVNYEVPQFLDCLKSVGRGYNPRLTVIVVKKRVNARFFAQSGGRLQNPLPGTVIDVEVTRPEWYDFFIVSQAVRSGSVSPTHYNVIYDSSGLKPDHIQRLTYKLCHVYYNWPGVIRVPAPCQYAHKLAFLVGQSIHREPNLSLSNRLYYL

increase in the amount of target cleaved by MIWI piRISC (S.D. = 0.1; p = 0.0027): 2.6 fold
Substance: BmGtsf1-like, silk moth (Bombyx mori), V5SBP-tagged recombinant (natural protein)
